For orientation: koff means a measure of how fast the partners let go of each other.

Positions count from the first letter of the chain named.

The labels stand for the following.
B1: VH clone 1.2 (VHH)
VHH: EVQLVESGGGLVQPGRSLRLSCAASGFTFDDYAMHWVRQAPGKGLEWVSGISWNSGRMDYADSVKGRFTISRDNAKNSLYLQMNSLRAEDTALYYCAKEKGLGYCRGGSCSYFDYRGQGTLVTVSS
B2: VH clone 1.1 (VHH)
VHH: B1 VHH with E1Q, N77K, L93M, Y104F
B3: VH clone 2.1 (VHH)
VHH: QVQLVQSGAEVKKPGASVKVSCKASGYPFTSYDINWVRQATGQSLEWMGWMNPNSGDTVYAQKFQGRVTMTRNTSISTAYMELSSLRSEDTAVYFCARGRRDDWKNNYWGQGTLVTVSS

The target in this assay is recombinant human IL-17RA Fc fusion protein (R&D Systems 177-IR-100) (UniProt Q96F46 33-320). As to the kind of experiment: BIAcore. (Surface plasmon resonance follows binding to a sensor surface in real time, without labels.)
recombinant human IL-17RA Fc fusion protein (R&D Systems 177-IR-100), sequence (Q96F46 33-320): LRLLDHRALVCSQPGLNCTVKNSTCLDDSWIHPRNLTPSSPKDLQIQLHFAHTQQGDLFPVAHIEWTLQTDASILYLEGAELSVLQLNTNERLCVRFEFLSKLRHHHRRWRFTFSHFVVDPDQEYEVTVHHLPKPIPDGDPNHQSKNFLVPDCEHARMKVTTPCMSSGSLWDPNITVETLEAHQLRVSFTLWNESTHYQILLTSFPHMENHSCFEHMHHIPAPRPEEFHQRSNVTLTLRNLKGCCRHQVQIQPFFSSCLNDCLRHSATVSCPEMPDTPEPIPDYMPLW
Consider B1, for which the off-rate constant (koff) came to 5.79e-05 s⁻¹.

In the case of B2, the koff stood at 5.83e-05 s⁻¹.

On to B3, for which the off-rate constant (koff) amounted to 0.00384 s⁻¹.

These data come from patent US20180215829A1 (published 2018).
